Legend:
CSL (RBP-Jkappa) [1] = biological target: T1, CSL (RBP-Jkappa) (UniProt Q06330 1-500); assay: MST; 200 nM labelled CSL; MST in standard MST buffer (composition and pH not given), premium-treated capillaries, Monolith NT.115; 20 min at room temperature stated for the protein mixes; conditions: protein: commercial; tags: RED-NHS dye when labelled; blunt
CSL (RBP-Jkappa) [2] = biological target: T1, CSL (RBP-Jkappa); assay: MST; 50 nM labelled DNA; MST in standard MST buffer (composition and pH not given), premium-treated capillaries, Monolith NT.115; 20 min at room temperature stated for the protein mixes; conditions: protein: commercial; tags: RED-NHS dye when labelled; label: 647-NHS; blunt
UPF1 = biological target: T2, UPF1 (UniProt Q92900 1-352+364-1129, internal_change); assay: MST; 50 nM labelled DNA; no binding specificity; MST in standard MST buffer (composition and pH not given), premium-treated capillaries, Monolith NT.115; 20 min at room temperature stated for the protein mixes; conditions: protein: commercial; label: 647-NHS; blunt
T2 sequence: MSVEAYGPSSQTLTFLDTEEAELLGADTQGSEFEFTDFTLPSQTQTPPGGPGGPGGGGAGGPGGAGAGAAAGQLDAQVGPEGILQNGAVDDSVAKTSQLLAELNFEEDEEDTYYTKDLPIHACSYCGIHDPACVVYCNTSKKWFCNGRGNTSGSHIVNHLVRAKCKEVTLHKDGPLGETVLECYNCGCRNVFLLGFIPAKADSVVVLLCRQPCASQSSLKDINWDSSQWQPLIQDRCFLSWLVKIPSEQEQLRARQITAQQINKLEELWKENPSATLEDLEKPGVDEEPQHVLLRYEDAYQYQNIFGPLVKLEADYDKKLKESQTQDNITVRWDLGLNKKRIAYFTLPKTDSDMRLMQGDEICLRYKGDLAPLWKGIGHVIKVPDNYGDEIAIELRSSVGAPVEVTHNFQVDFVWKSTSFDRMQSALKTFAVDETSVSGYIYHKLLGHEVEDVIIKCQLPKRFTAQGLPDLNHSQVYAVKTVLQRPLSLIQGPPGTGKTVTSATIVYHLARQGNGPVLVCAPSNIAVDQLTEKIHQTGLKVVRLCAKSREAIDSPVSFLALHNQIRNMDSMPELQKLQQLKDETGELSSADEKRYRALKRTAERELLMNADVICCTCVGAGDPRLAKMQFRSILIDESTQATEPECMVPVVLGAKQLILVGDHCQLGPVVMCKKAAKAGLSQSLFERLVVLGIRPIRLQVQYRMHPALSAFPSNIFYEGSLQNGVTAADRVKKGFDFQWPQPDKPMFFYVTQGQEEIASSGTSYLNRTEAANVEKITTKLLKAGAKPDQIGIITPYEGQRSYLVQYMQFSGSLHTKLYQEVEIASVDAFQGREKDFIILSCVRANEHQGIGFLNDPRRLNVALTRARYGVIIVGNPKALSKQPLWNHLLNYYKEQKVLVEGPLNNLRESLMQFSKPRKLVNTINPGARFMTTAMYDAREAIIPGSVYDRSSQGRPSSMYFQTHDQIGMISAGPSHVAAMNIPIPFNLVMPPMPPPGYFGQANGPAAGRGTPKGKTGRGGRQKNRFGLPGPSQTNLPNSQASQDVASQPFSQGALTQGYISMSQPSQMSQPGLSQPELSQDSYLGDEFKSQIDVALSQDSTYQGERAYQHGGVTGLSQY

CSL (RBP-Jkappa) [3] = biological target: T1, CSL (RBP-Jkappa); assay: MST; second independent experiment; 50 nM labelled DNA; MST in standard MST buffer (composition and pH not given), premium-treated capillaries, Monolith NT.115; 20 min at room temperature stated for the protein mixes; conditions: protein: commercial; tags: RED-NHS dye when labelled; label: 647-NHS; blunt

T1 sequence (Q06330 whole entry): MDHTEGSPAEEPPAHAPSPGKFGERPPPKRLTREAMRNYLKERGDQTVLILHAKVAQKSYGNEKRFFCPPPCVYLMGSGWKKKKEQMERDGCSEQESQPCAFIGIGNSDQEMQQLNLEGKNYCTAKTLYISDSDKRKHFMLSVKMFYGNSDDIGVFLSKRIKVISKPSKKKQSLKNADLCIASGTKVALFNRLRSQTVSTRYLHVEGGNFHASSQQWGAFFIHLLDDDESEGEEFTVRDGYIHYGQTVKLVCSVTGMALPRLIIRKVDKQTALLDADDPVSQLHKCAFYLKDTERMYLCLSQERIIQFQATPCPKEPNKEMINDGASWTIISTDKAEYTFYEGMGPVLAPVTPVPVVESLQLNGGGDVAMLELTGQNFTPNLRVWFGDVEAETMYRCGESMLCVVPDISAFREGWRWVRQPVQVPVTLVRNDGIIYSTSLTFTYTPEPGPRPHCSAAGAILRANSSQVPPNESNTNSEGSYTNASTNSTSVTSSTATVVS

Binder | Kd (CSL (RBP-Jkappa) [1]) | Kd (CSL (RBP-Jkappa) [2]) | Kd (UPF1) | Kd (CSL (RBP-Jkappa) [3])
SCRAMBLED (dsDNA) DNA 1: GCTACTCATACCTAGAACG DNA 2: CGTTCTAGGTATGAGTAGC | 3.38 ± 0.0776 µM | – | – | –
TELO (TTAGGG)3 (dsDNA) DNA 1: TTAGGGTTAGGGTTAGGG DNA 2: CCCTAACCCTAACCCTAA | – | 0.235 ± 0.0239 µM | 3.52 ± 0.0468 µM | 0.232 ± 0.0154 µM
CSL specific motif (dsDNA) DNA 1: GTTACTGTGGGAAAGAAAG DNA 2: CTTTCTTTCCCACAGTAAC | 0.121 ± 0.0174 µM | – | – | –

From PMC6715699
